The target of one assay is T1, CD39 mutant 5 (human, UniProt P49961 1-510).
T1 construct: Expressed on transfected Hek-293T cells; also called M5
T1 chain: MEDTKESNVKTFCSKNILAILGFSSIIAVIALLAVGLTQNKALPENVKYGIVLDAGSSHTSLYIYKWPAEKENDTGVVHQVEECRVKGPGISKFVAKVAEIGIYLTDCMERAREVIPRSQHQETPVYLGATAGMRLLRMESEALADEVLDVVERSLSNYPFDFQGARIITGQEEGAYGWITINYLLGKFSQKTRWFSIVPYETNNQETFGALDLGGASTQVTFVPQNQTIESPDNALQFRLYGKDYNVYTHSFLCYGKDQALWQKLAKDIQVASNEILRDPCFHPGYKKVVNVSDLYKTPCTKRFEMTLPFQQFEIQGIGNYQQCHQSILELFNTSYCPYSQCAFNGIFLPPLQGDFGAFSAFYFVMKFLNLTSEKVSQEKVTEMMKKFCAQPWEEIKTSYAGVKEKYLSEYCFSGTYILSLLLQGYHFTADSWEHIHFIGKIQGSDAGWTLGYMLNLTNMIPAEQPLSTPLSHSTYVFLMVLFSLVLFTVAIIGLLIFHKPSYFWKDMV
Put plainly: flow cytometry on Hek-293T cells transfected with CD39 mutant 5 [panel M5]. (Flow cytometry measures light scatter and fluorescence of single cells or particles in a stream.)

In assay [1] the target is T2, human CD39 expressed on cells (human, UniProt P49961 1-510).
T2 construct: On CHO transfectants, HEK-293T transfectants (wild type), Ramos lymphoma cells or monocyte-derived dendritic cells, as named under assay; also called huCD39; CHO-huCD39
T2 sequence: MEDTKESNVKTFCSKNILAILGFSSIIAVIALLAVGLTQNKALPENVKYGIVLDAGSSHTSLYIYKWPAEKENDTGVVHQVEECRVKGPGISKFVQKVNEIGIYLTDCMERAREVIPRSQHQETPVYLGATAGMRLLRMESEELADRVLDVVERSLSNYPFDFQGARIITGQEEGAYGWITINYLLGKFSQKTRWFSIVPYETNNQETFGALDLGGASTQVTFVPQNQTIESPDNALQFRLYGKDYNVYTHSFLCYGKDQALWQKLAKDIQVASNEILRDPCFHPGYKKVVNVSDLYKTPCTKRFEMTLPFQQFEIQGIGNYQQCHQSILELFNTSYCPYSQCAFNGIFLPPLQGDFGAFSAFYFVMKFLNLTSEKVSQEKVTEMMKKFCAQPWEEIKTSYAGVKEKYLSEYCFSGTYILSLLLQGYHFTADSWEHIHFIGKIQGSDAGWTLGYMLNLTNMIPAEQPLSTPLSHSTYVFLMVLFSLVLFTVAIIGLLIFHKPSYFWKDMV
Put plainly: flow cytometry titration on Ramos lymphoma cells, second experiment; Ramos cells, second set of experiments. On the procedure: Cells were incubated with various concentration of unlabeled anti-CD39 antibody from 30 μg/ml to 5×10⁻⁴ μg/ml, for 30 minutes at 4° C. After washes, cells were incubated with Goat anti-mouse H+L labeled secondary antibody for 30 min at 4° C.

For a further assay, the target named is T3, Human CD39-L2 (human, UniProt O75354 61-484, limits assumed).
T3 construct: Recombinant protein coated in ELISA; also called NTPDase6; ENTPD6
T3 sequence: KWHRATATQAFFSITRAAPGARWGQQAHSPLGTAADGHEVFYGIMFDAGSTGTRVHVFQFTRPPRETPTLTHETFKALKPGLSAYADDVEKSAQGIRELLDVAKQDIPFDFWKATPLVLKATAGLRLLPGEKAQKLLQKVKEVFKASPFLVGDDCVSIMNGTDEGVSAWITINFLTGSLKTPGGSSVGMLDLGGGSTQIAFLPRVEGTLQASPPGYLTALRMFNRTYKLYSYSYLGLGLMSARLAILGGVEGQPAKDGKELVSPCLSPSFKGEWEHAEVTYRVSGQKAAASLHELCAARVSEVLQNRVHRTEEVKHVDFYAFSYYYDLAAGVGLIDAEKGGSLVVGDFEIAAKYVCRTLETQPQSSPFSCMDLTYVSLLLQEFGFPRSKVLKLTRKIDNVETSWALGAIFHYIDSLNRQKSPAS
Put plainly: ELISA on coated recombinant human CD39-L2 [panel huCD39 L2]. On the procedure:
Wells were washed in TBS Tween 20, and further saturated 2H at RT in TBS Blocking buffer. Dose range concentration of primary antibody was incubated in TBS blocking buffer for 2 h at RT. Wells were washed in TBS Tween 20. […] Optical density was measured on Enspire™ at OD=450.
Background: In an ELISA, binding on a coated surface is turned into a signal by an enzyme label.

The next assay deals with T4, CD39 mutant 19 (human, UniProt P49961 1-510).
T4 construct: Expressed on transfected Hek-293T cells; also called M19
T4 chain: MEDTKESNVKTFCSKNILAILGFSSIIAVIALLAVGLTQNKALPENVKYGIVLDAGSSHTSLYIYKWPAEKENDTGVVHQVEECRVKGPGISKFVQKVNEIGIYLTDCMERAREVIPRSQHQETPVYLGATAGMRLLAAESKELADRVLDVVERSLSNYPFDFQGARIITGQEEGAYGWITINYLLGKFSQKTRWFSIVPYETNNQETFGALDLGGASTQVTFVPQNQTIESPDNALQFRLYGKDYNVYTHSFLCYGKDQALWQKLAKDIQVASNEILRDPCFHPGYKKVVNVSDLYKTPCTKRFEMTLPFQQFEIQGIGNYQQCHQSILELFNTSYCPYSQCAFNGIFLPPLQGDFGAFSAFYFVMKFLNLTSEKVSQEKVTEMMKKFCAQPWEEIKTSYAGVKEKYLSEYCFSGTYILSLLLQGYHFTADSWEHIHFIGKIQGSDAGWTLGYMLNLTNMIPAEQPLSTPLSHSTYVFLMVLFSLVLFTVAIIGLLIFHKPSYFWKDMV
Kind of assay: flow cytometry on Hek-293T cells transfected with CD39 mutant 19 [panel M19].

B1: antibody I-394 (antibody, human IgG1, kappa, V domains shown)
VH: EVQLQQSGPELVKPGASVKMSCKASGYTFTDYNMHWVKQSHGRTLEWIGYIVPLNGGSTFNQKFKGRATLTVNTSSRTAYMELRSLTSEDSAAYYCARGGTRFAYWGQGTLVTVSA
VL: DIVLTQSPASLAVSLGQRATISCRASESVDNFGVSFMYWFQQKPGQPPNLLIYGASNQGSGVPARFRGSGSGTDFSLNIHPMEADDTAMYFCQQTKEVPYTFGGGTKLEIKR
notes: The hybridoma-derived mouse form was used in early screening
A word on the EC50: it is the concentration giving half of the maximal effect. Low readings indicate a more potent agent, high ones a less potent agent. In the case of B1, the figures for the binding result with CD39 mutant 5, with Human CD39-L2 and with CD39 mutant 19 were “binds”, “no binding” and “no binding”, respectively. In assay [1], this molecule yielded an EC50 of 0.19 µg/mL.

For the origin of these results see US20190218304A1 (INNATE PHARMA, published 2019).
